In patent US20260258376 one finds activity (fraction of off-target control) data, which are given here for 14 sequences.

Holding throughout (assay): cell_activity
The subject of data set [1] is ZF-off targeting TAR1608 (table row SEQ 1608) (synthetic). Particulars: HLA-DR+ 12.05%; binding inferred from silencing.
The test system of data set [2] is ZF-off targeting TAR1646 (table row SEQ 1547) (synthetic). Particulars: HLA-DR+ 3.88%; binding inferred from silencing.
The test system of data set [3] is ZF-off targeting TAR1649 (second row, 10.70%) (synthetic). Particulars: HLA-DR+ 10.70%; binding inferred from silencing.
The test system of data set [4] is ZF-off targeting TAR1604 (table row SEQ 1576) (synthetic). Particulars: HLA-DR+ 12.84%; binding inferred from silencing.
Data set [5] has as its system ZF-off targeting TAR1612 (table row SEQ 1599) (synthetic). Particulars: HLA-DR+ 12.50%; binding inferred from silencing.
The subject of data set [6] is ZF-off targeting TAR1616 (table row SEQ 1557) (synthetic). Particulars: HLA-DR+ 5.76%; binding inferred from silencing.
The subject of data set [7] is ZF-off targeting TAR1650 (table row SEQ 1549) (synthetic). Particulars: HLA-DR+ 13.65%; binding inferred from silencing.
Data set [8] concerns ZF-off targeting TAR1607 (table row SEQ 1538) (synthetic). Particulars: HLA-DR+ 6.46%; binding inferred from silencing.
Data set [9] relates to ZF-off targeting TAR1654 (table row SEQ 1572) (synthetic). Particulars: HLA-DR+ in primary human T cells, 2.64%; binding inferred from silencing.
Data set [10] concerns ZF-off targeting TAR1615 (table row SEQ 1601) (synthetic). Particulars: HLA-DR+ 4.50%; binding inferred from silencing.
Data set [11] relates to ZF-off targeting TAR1623 (table row SEQ 1605) (synthetic). Particulars: HLA-DR+ 10.56%; binding inferred from silencing.
The test system of data set [12] is ZF-off targeting TAR1648 (third row, 4.51%) (synthetic). Particulars: HLA-DR+ 4.51%; binding inferred from silencing.
The subject of data set [13] is ZF-off targeting TAR186 (table row SEQ 1553) (synthetic). Particulars: HLA-DR+ 7.53%; binding inferred from silencing.
For data set [14], the system named is ZF-off targeting TAR1655 (table row SEQ 1563) (synthetic). Particulars: HLA-DR+ 15.20%; binding inferred from silencing.

In turn, “GGAGCTGCTGCCTGGCTGG (double strand) [TAR1608]” returned an activity (fraction of off-target control) in [1] of 0.34.
In data set [2], “GTGGTATCAAGGAGGAAGT (double strand) [TAR1646]” registered an activity (fraction of off-target control) of 0.11.
“ACAGAAAGTCTGTTGGGGG (double strand) [TAR1649]” came in with an activity (fraction of off-target control) in data set [3] of 0.31.
For the sequence “GAGGCATCTGGGCGGAGGG (double strand) [TAR1604]”, the activity (fraction of off-target control) in data set [4] is 0.37.
The sequence “GCAGCTGGGGAGAGCTGGC (double strand) [TAR1612]” had an activity (fraction of off-target control) in [5] of 0.36.
Take “GAACAGATGGTGGGAAGAG (double strand) [TAR1616]”: in [6], the activity (fraction of off-target control) stood at 0.16.
“GAATTTGGTGAAGACAGAA (double strand) [TAR1650]” gave an activity (fraction of off-target control) in [7] of 0.39.
As for “AGGGCACGAGGAGGGGCTG (double strand) [TAR1607]”, the activity (fraction of off-target control) in data set [8] was 0.18.
“GACAGGTAGGACCCAGCAG (double strand) [TAR1654]” registered an activity (fraction of off-target control) in [9] of 0.08.
“GACGGGGGAACAGATGGTG (double strand) [TAR1615]” displayed an activity (fraction of off-target control) in data set [10] of 0.13.
In [11], “GGAGGGGGAGAAGTCAGAG (double strand) [TAR1623]” showed an activity (fraction of off-target control) of 0.3.
For the sequence “GAGAGCCTCTGCTGGGGAC (double strand) [TAR1648]”, the activity (fraction of off-target control) in [12] came out at 0.13.
Regarding “GAGGCTGTGTGCTTCTGAG (double strand) [TAR186]”, the activity (fraction of off-target control) in data set [13] is 0.22.
In data set [14], “TGGGTATGGAGTGGAGTCT (double strand) [TAR1655]” registered an activity (fraction of off-target control) of 0.43.
